T1: GPR41 (Homo sapiens, UniProt O14843)
T1 sequence (O14843 1-346): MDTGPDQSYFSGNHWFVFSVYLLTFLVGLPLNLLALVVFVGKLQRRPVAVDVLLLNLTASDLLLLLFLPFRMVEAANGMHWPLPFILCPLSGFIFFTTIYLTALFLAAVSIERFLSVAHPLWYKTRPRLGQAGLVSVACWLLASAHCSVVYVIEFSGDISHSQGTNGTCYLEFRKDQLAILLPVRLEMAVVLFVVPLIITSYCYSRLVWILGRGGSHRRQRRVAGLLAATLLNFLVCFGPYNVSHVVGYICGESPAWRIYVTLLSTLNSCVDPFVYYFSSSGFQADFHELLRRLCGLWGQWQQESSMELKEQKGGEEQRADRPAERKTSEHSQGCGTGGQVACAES

B1: L9-Q: L9 background with Luc2.0 K541Q; SEQ ID NO:96, 97 (protein)
chain: MPGAVGKVVPFFEAKVVDLDTGKTLGVNQRGELCVRGPMIMSGYVNNPEATNALIDKDGWLHSGDIAYWDEDEHFFIVDRLKSLIKYKGYQVAPAELESILLQHPNIFDAGVAGLPDDDAGELPAAVVVLEHGKTMTEKEIVDYVASQVTTAKKLRGGVVFVDEVPKGLTGKLDARKIREILIQAKKGSIAGCGDAGEGMYESFIESLPFLKSLEFSARLKVVDVIGTKVYNDGEQIIAQGDSADSFFIIESGEVKITMKRKGKSEVEENGAVEIARCSRGQYFGELALVTNKPRAASAHAIGTVKCLAMDVQAFERLLGPCMEIMKRNIATYEEQLVALFGTNMDIVAKNIKKGPAPFYPLEDGTAGEQLHKAMKRYALVPGTIAFTDAHIEVDITYAEYFEMSVRLAEAMKRYGLNTNHRIVVCSENSLQFFMPVLGALFIGVAVAPANDIYNERELLNSMGISQPTVVFVSKKGLQKILNVQKKLPIIQKIIIMDSKTDYQGFQSMYTFVTSHLPPGFNEYDFVPESFDRDKTIALIMNSSGSTGLPKGVALPHRTACVRFSHARDPIFGNQIIPDTAILSVVPFHHGFGMFTTLGYLICGFRVVLMYRFEEELFLRSLQDYKIQSALLVPTLFSFFAKSTLIDKYDLSNLHEIASGGAPLSKEVGEAVAKRFHLPGIRQGYGLTETTSAILITPEGV
B2: L9-IL: L9 background with Luc2.0 F369I, F518L; SEQ ID NO:84, 85 (protein)
chain: MPGAVGKVVPFIEAKVVDLDTGKTLGVNQRGELCVRGPMIMSGYVNNPEATNALIDKDGWLHSGDIAYWDEDEHFFIVDRLKSLIKYKGYQVAPAELESILLQHPNIFDAGVAGLPDDDAGELPAAVVVLEHGKTMTEKEIVDYVASQVTTAKKLRGGVVLVDEVPKGLTGKLDARKIREILIKAKKGSIAGCGDAGEGMYESFIESLPFLKSLEFSARLKVVDVIGTKVYNDGEQIIAQGDSADSFFIIESGEVKITMKRKGKSEVEENGAVEIARCSRGQYFGELALVTNKPRAASAHAIGTVKCLAMDVQAFERLLGPCMEIMKRNIATYEEQLVALFGTNMDIVAKNIKKGPAPFYPLEDGTAGEQLHKAMKRYALVPGTIAFTDAHIEVDITYAEYFEMSVRLAEAMKRYGLNTNHRIVVCSENSLQFFMPVLGALFIGVAVAPANDIYNERELLNSMGISQPTVVFVSKKGLQKILNVQKKLPIIQKIIIMDSKTDYQGFQSMYTFVTSHLPPGFNEYDFVPESFDRDKTIALIMNSSGSTGLPKGVALPHRTACVRFSHARDPIFGNQIIPDTAILSVVPFHHGFGMFTTLGYLICGFRVVLMYRFEEELFLRSLQDYKIQSALLVPTLFSFFAKSTLIDKYDLSNLHEIASGGAPLSKEVGEAVAKRFHLPGIRQGYGLTETTSAILITPEGV
B3: L9-LY: L9 background with Luc2.0 F518L and RIIβB F407Y; SEQ ID NO:100, 101 (protein)
chain: MPGAVGKVVPFFEAKVVDLDTGKTLGVNQRGELCVRGPMIMSGYVNNPEATNALIDKDGWLHSGDIAYWDEDEHFFIVDRLKSLIKYKGYQVAPAELESILLQHPNIFDAGVAGLPDDDAGELPAAVVVLEHGKTMTEKEIVDYVASQVTTAKKLRGGVVLVDEVPKGLTGKLDARKIREILIKAKKGSIAGCGDAGEGMYESFIESLPFLKSLEFSARLKVVDVIGTKVYNDGEQIIAQGDSADSFFIIESGEVKITMKRKGKSEVEENGAVEIARCSRGQYFGELALVTNKPRAASAHAIGTVKCLAMDVQAFERLLGPCMEIMKRNIATYEEQLVALYGTNMDIVAKNIKKGPAPFYPLEDGTAGEQLHKAMKRYALVPGTIAFTDAHIEVDITYAEYFEMSVRLAEAMKRYGLNTNHRIVVCSENSLQFFMPVLGALFIGVAVAPANDIYNERELLNSMGISQPTVVFVSKKGLQKILNVQKKLPIIQKIIIMDSKTDYQGFQSMYTFVTSHLPPGFNEYDFVPESFDRDKTIALIMNSSGSTGLPKGVALPHRTACVRFSHARDPIFGNQIIPDTAILSVVPFHHGFGMFTTLGYLICGFRVVLMYRFEEELFLRSLQDYKIQSALLVPTLFSFFAKSTLIDKYDLSNLHEIASGGAPLSKEVGEAVAKRFHLPGIRQGYGLTETTSAILITPEGV
B4: L9-ILQ: L9 background with Luc2.0 F369I, F518L, K541Q; SEQ ID NO:86, 87 (protein)
chain: MPGAVGKVVPFIEAKVVDLDTGKTLGVNQRGELCVRGPMIMSGYVNNPEATNALIDKDGWLHSGDIAYWDEDEHFFIVDRLKSLIKYKGYQVAPAELESILLQHPNIFDAGVAGLPDDDAGELPAAVVVLEHGKTMTEKEIVDYVASQVTTAKKLRGGVVLVDEVPKGLTGKLDARKIREILIQAKKGSIAGCGDAGEGMYESFIESLPFLKSLEFSARLKVVDVIGTKVYNDGEQIIAQGDSADSFFIIESGEVKITMKRKGKSEVEENGAVEIARCSRGQYFGELALVTNKPRAASAHAIGTVKCLAMDVQAFERLLGPCMEIMKRNIATYEEQLVALFGTNMDIVAKNIKKGPAPFYPLEDGTAGEQLHKAMKRYALVPGTIAFTDAHIEVDITYAEYFEMSVRLAEAMKRYGLNTNHRIVVCSENSLQFFMPVLGALFIGVAVAPANDIYNERELLNSMGISQPTVVFVSKKGLQKILNVQKKLPIIQKIIIMDSKTDYQGFQSMYTFVTSHLPPGFNEYDFVPESFDRDKTIALIMNSSGSTGLPKGVALPHRTACVRFSHARDPIFGNQIIPDTAILSVVPFHHGFGMFTTLGYLICGFRVVLMYRFEEELFLRSLQDYKIQSALLVPTLFSFFAKSTLIDKYDLSNLHEIASGGAPLSKEVGEAVAKRFHLPGIRQGYGLTETTSAILITPEGV
B5: L9-IQ: L9 background with Luc2.0 F369I, K541Q; SEQ ID NO:74, 75 (protein)
chain: MPGAVGKVVPFIEAKVVDLDTGKTLGVNQRGELCVRGPMIMSGYVNNPEATNALIDKDGWLHSGDIAYWDEDEHFFIVDRLKSLIKYKGYQVAPAELESILLQHPNIFDAGVAGLPDDDAGELPAAVVVLEHGKTMTEKEIVDYVASQVTTAKKLRGGVVFVDEVPKGLTGKLDARKIREILIQAKKGSIAGCGDAGEGMYESFIESLPFLKSLEFSARLKVVDVIGTKVYNDGEQIIAQGDSADSFFIIESGEVKITMKRKGKSEVEENGAVEIARCSRGQYFGELALVTNKPRAASAHAIGTVKCLAMDVQAFERLLGPCMEIMKRNIATYEEQLVALFGTNMDIVAKNIKKGPAPFYPLEDGTAGEQLHKAMKRYALVPGTIAFTDAHIEVDITYAEYFEMSVRLAEAMKRYGLNTNHRIVVCSENSLQFFMPVLGALFIGVAVAPANDIYNERELLNSMGISQPTVVFVSKKGLQKILNVQKKLPIIQKIIIMDSKTDYQGFQSMYTFVTSHLPPGFNEYDFVPESFDRDKTIALIMNSSGSTGLPKGVALPHRTACVRFSHARDPIFGNQIIPDTAILSVVPFHHGFGMFTTLGYLICGFRVVLMYRFEEELFLRSLQDYKIQSALLVPTLFSFFAKSTLIDKYDLSNLHEIASGGAPLSKEVGEAVAKRFHLPGIRQGYGLTETTSAILITPEGV
B6: L9-Y: L9 background with RIIβB F407Y; SEQ ID NO:98, 99 (protein)
chain: MPGAVGKVVPFFEAKVVDLDTGKTLGVNQRGELCVRGPMIMSGYVNNPEATNALIDKDGWLHSGDIAYWDEDEHFFIVDRLKSLIKYKGYQVAPAELESILLQHPNIFDAGVAGLPDDDAGELPAAVVVLEHGKTMTEKEIVDYVASQVTTAKKLRGGVVFVDEVPKGLTGKLDARKIREILIKAKKGSIAGCGDAGEGMYESFIESLPFLKSLEFSARLKVVDVIGTKVYNDGEQIIAQGDSADSFFIIESGEVKITMKRKGKSEVEENGAVEIARCSRGQYFGELALVTNKPRAASAHAIGTVKCLAMDVQAFERLLGPCMEIMKRNIATYEEQLVALYGTNMDIVAKNIKKGPAPFYPLEDGTAGEQLHKAMKRYALVPGTIAFTDAHIEVDITYAEYFEMSVRLAEAMKRYGLNTNHRIVVCSENSLQFFMPVLGALFIGVAVAPANDIYNERELLNSMGISQPTVVFVSKKGLQKILNVQKKLPIIQKIIIMDSKTDYQGFQSMYTFVTSHLPPGFNEYDFVPESFDRDKTIALIMNSSGSTGLPKGVALPHRTACVRFSHARDPIFGNQIIPDTAILSVVPFHHGFGMFTTLGYLICGFRVVLMYRFEEELFLRSLQDYKIQSALLVPTLFSFFAKSTLIDKYDLSNLHEIASGGAPLSKEVGEAVAKRFHLPGIRQGYGLTETTSAILITPEGV

Assays:
GPR41 [1] = assay: Sodium proprionate CRC with biosensor variants in HEK293 cells stably expressing GPR41; type: cell-based; settings: ratio of RLU of FSK treated well to untreated well
Method: (§1) After 24 hours, the cells were transiently transfected with one of the cAMP biosensor variants (Tables 7A and 7B). After another 24 hours, the cells were equilibrated for 2 hours at room temperature using 5 mM EF-luc in CO2 independent media with 10% FBS. Prior to the addition of the compounds, luminescence was measured. The compounds (12× stock in CO2 independent media without FBS) were then added to the cells. For GPR41 expressing cells, sodium proprionate CRC was added. […] The cells were allowed to incubate another 30 minutes and luminescence read on a Varioskan Flash. EC50 values and fold responses were calculated for each of the clones with each of the compounds with or without FSK. In addition, variants […]7 (Example VIIB), 16A2 (Example VIIB) and GS358 were also screened.

GPR41 [2] = target: T1, GPR41; assay: as above; type: cell-based; settings: for Fold Response Na proprionate + FSK(1 μM): with FSK 1 μM; for Fold Response Na proprionate: without FSK, ratio of induced to uninduced signal
Method: as §1

Row | Molecule | Fold Signal Change (GPR41 [1]) [fold] | Fold Response Na proprionate + FSK(1 μM) (GPR41 [2]) [fold] | Fold Response Na proprionate (GPR41 [2]) [fold]
1 | B1 | 42.0 | 5.24 | 2.57
2 | B2 | 96.7 | 7.43 | 3.67
3 | B3 | 126.7 | 5.57 | 2.07
4 | B4 | 140.4 | 10.21 | 4.13
5 | B5 | 64.0 | 5.17 | 3.41
6 | B6 | 55.8 | 3.88 | 2.17
